Tests used:
[1] = molecular target: HLA-A2 presenting TdT peptide-3 (…) on target cells (human); test: cell-based or functional assay
[2] = molecular target: T1, human terminal deoxynucleotidyl transferase (TdT) peptide on HLA-A*02:01 (human); test: cytokine release
T1 peptide: ALYDKTKRI

[3] = molecular target: T2, human terminal deoxynucleotidyl transferase (TdT) peptide on HLA-A*02:01 (human); test: multimer staining
T2 peptide: ALYDKTKRIFL

[4] = molecular target: HLA-A2 presenting TdT peptide-1 (…) on target cells (human); test: cell-based or functional assay
[5] = molecular target: T1, human terminal deoxynucleotidyl …; test: multimer staining

B1: T3 TCR (TCR, V domains shown)
V domain 1: SQQGEEDPQALSIQEGENATMNCSYKTSINNLQWYRQNSGRGLVHLILIRSNEREKHSGRLRVTLDTSKKSSSLLITASRAADTASYFCATDAGAYSGGGADGLTFGKGTHLIIQP
V domain 2: EAQVTQNPRYLITVTGKKLTVTCSQNMNHEYMSWYRQDPGLGLRQIYYSMNVEVTDKGDVPEGYKVSRKEKRNFPLILESPSPNQTSLYFCASSLSSSYNEQFFGPGTRLTVLE
EC50 of activation of T3 cells following co-incubation with peptide-pulsed T2 lymphoblast cells [1]: 1.2 nM

B2: T3 TCR (TCR, V domains shown)
Valpha: B1 V domain 1
Vbeta: EAQVTQNPRYLITVTGKKLTVTCSQNMNHEYMSWYRQDPGLGLRQIYYSMNVEVTDKGDVPEGYKVSRKEKRNFPLILESPSPNQTSLYFCASSLSSSYNEQFFGPGTRLTVL
binding result [2]: no recognition
binding result [3]: recognises

B3: T1 TCR (TCR, V domains shown)
V domain 1: EDQVTQSPEALRLQEGESSSLNCSYTVSGLRGLFWYRQDPGKGPEFLFTLYSAGEEKEKERLKATLTKKESFLHITAPKPEDSATYLCAVQASSNSGYALNFGKGTSLLVTP
V domain 2: SAVISQKPSRDICQRGTSLTIQCQVDSQVTMMFWYRQQPGQSLTLIATANQGSEATYESGFVIDKFPISRPNLTFSTLTVSNMSPEDSSIYLCSVEPGYADTQYFGPGTRLTVLE
EC50 of activation of T1 cells following co-incubation with peptide-pulsed T2 lymphoblast cells [4]: 5.8 nM

B4: T1 TCR (TCR, V domains shown)
Valpha: B3 V domain 1
Vbeta: SAVISQKPSRDICQRGTSLTIQCQVDSQVTMMFWYRQQPGQSLTLIATANQGSEATYESGFVIDKFPISRPNLTFSTLTVSNMSPEDSSIYLCSVEPGYADTQYFGPGTRLTVL
binding result [5]: recognises

From patent US20250170175A1 (OSLO UNIVERSITETSSYKEHUS HF, published 2025)
